B1: peptide-HDO conjugate of Example 10 (first nucleic acid strand A2, second nucleic acid strand C10) (peptide)
peptide: AVFVWNYYIIRRYYC
modifications: MeF at 3, MeY at 14 (N-methyl); thioether ring from N-terminal chloroacetyl-Ala to Cys 15; C-terminal Gly-KN3-NH2, azide joined to BCN on the oligonucleotide
notes: also called A2/C10
B2: peptide-HDO conjugate of Example 28 (first nucleic acid strand A1, second nucleic acid strand C28) (peptide)
peptide: AVFVWNYYIIRRYYC
modifications: MeF at 3, MeY at 14 (N-methyl); thioether ring from N-terminal chloroacetyl-Ala to Cys 15; C-terminal Gly-KN3-NH2, azide joined to BCN on the oligonucleotide
notes: also called A1/C28
B3: peptide-HDO conjugate of Example 39 (first nucleic acid strand A2, second nucleic acid strand C31) (peptide)
peptide: AVFVWNYYIIRRYYC
modifications: MeF at 3, MeY at 14 (N-methyl); thioether ring from N-terminal chloroacetyl-Ala to Cys 15; C-terminal Gly-KN3-NH2, azide joined to BCN on the oligonucleotide
notes: also called A2/C31
B4: peptide-HDO conjugate of Example 40 (first nucleic acid strand A2, second nucleic acid strand C32) (peptide)
peptide: AVFVWNYYIIRRYYC
modifications: MeF at 3, MeY at 14 (N-methyl); thioether ring from N-terminal chloroacetyl-Ala to Cys 15; C-terminal Gly-KN3-NH2, azide joined to BCN on the oligonucleotide
notes: also called A2/C32
B5: peptide-HDO conjugate of Example 55 (first nucleic acid strand A4, second nucleic acid strand C55) (peptide)
peptide: AVFVWNYYIIRRYYC
modifications: not fully specified; MeF at 3, MeY at 14 (N-methyl); thioether ring from N-terminal chloroacetyl-Ala to Cys 15; C-terminal Gly-KN3-NH2, azide joined to BCN on the oligonucleotide
notes: also called A4/C55
B6: peptide-HDO conjugate of Example 7 (first nucleic acid strand A1, second nucleic acid strand C7) (peptide)
peptide: AVFVWNYYIIRRYYC
modifications: MeF at 3, MeY at 14 (N-methyl); thioether ring from N-terminal chloroacetyl-Ala to Cys 15; C-terminal Gly-KN3-NH2, azide joined to BCN on the oligonucleotide
notes: also called A1/C7
B7: peptide-HDO conjugate of Example 35 (first nucleic acid strand A2, second nucleic acid strand C27) (peptide)
peptide: AVFVWNYYIIRRYYC
modifications: MeF at 3, MeY at 14 (N-methyl); thioether ring from N-terminal chloroacetyl-Ala to Cys 15; C-terminal Gly-KN3-NH2, azide joined to BCN on the oligonucleotide
notes: also called A2/C27
B8: peptide-HDO conjugate of Example 21 (first nucleic acid strand A1, second nucleic acid strand C21) (peptide)
peptide: AVFVWNYYIIRRYYC
modifications: MeF at 3, MeY at 14 (N-methyl); thioether ring from N-terminal chloroacetyl-Ala to Cys 15; C-terminal Gly-KN3-NH2, azide joined to BCN on the oligonucleotide
notes: also called A1/C21
B9: peptide-HDO conjugate of Example 36 (first nucleic acid strand A2, second nucleic acid strand C28) (peptide)
peptide: AVFVWNYYIIRRYYC
modifications: MeF at 3, MeY at 14 (N-methyl); thioether ring from N-terminal chloroacetyl-Ala to Cys 15; C-terminal Gly-KN3-NH2, azide joined to BCN on the oligonucleotide
notes: also called A2/C28
B10: peptide-HDO conjugate of Example 33 (first nucleic acid strand A1, second nucleic acid strand C33) (peptide)
peptide: AVFVWNYYIIRRYYC
modifications: MeF at 3, MeY at 14 (N-methyl); thioether ring from N-terminal chloroacetyl-Ala to Cys 15; C-terminal Gly-KN3-NH2, azide joined to BCN on the oligonucleotide
notes: also called A1/C33
B11: peptide-HDO conjugate of Example 22 (first nucleic acid strand A2, second nucleic acid strand C17) (peptide)
peptide: AVFVWNYYIIRRYYC
modifications: MeF at 3, MeY at 14 (N-methyl); thioether ring from N-terminal chloroacetyl-Ala to Cys 15; C-terminal Gly-KN3-NH2, azide joined to BCN on the oligonucleotide
notes: also called A2/C17
B12: peptide-HDO conjugate of Example 45 (first nucleic acid strand A1, second nucleic acid strand C45) (peptide)
peptide: AVFVWNYYIIRRYYC
modifications: MeF at 3, MeY at 14 (N-methyl); thioether ring from N-terminal chloroacetyl-Ala to Cys 15; C-terminal Gly-KN3-NH2, azide joined to BCN on the oligonucleotide
notes: also called A1/C45
B13: peptide-HDO conjugate of Example 18 (first nucleic acid strand A1, second nucleic acid strand C18) (peptide)
peptide: AVFVWNYYIIRRYYC
modifications: MeF at 3, MeY at 14 (N-methyl); thioether ring from N-terminal chloroacetyl-Ala to Cys 15; C-terminal Gly-KN3-NH2, azide joined to BCN on the oligonucleotide
notes: also called A1/C18
B14: peptide-HDO conjugate of Example 24 (first nucleic acid strand A2, second nucleic acid strand C19) (peptide)
peptide: AVFVWNYYIIRRYYC
modifications: MeF at 3, MeY at 14 (N-methyl); thioether ring from N-terminal chloroacetyl-Ala to Cys 15; C-terminal Gly-KN3-NH2, azide joined to BCN on the oligonucleotide
notes: also called A2/C19
B15: peptide-HDO conjugate of Example 9 (first nucleic acid strand A1, second nucleic acid strand C9) (peptide)
peptide: AVFVWNYYIIRRYYC
modifications: not fully specified; MeF at 3, MeY at 14 (N-methyl); thioether ring from N-terminal chloroacetyl-Ala to Cys 15; C-terminal Gly-KN3-NH2, azide joined to BCN on the oligonucleotide
notes: also called A1/C9
B16: Y10-PMO conjugate of Example 57 (peptide)
peptide: AVFVWNYYIIRRYYC
chain: RRRA
modifications: not fully specified; N-terminal BCN-AEEA; C-terminal beta-Ala coupled to the 3' end of PMO A1; MeF at 3, MeY at 14 (N-methyl); thioether ring from N-terminal chloroacetyl-Ala to Cys 15; C-terminal Gly-KN3-NH2, azide joined to BCN of the linker peptide
B17: Y13-PMO conjugate of Example 60 (peptide)
peptide: AVFVWNYYIIRRYYC
chain: RRRG
modifications: not fully specified; N-terminal 4-pentynoyl-AEEA; C-terminal Gly coupled to PMO A4; MeF at 3, MeY at 14 (N-methyl); thioether ring from N-terminal chloroacetyl-Ala to Cys 15; C-terminal Gly-KN3-NH2, azide joined by copper-catalysed click to the 4-pentynoyl group of the linker …
B18: peptide-HDO conjugate of Example 48 (first nucleic acid strand A2, second nucleic acid strand C47) (peptide)
peptide: AVFVWNYYIIRRYYC
modifications: MeF at 3, MeY at 14 (N-methyl); thioether ring from N-terminal chloroacetyl-Ala to Cys 15; C-terminal Gly-KN3-NH2, azide joined to BCN on the oligonucleotide
notes: also called A2/C47
B19: peptide-HDO conjugate of Example 41 (first nucleic acid strand A2, second nucleic acid strand C33) (peptide)
peptide: AVFVWNYYIIRRYYC
modifications: MeF at 3, MeY at 14 (N-methyl); thioether ring from N-terminal chloroacetyl-Ala to Cys 15; C-terminal Gly-KN3-NH2, azide joined to BCN on the oligonucleotide
notes: also called A2/C33
B20: peptide-HDO conjugate of Example 47 (first nucleic acid strand A1, second nucleic acid strand C47) (peptide)
peptide: AVFVWNYYIIRRYYC
modifications: MeF at 3, MeY at 14 (N-methyl); thioether ring from N-terminal chloroacetyl-Ala to Cys 15; C-terminal Gly-KN3-NH2, azide joined to BCN on the oligonucleotide
notes: also called A1/C47
B21: peptide-HDO conjugate of Example 49 (first nucleic acid strand A1, second nucleic acid strand C49) (peptide)
peptide: AVFVWNYYIIRRYYC
modifications: MeF at 3, MeY at 14 (N-methyl); thioether ring from N-terminal chloroacetyl-Ala to Cys 15; C-terminal Gly-PEG4c-KN3-NH2, azide joined to BCN on the oligonucleotide
notes: also called A1/C49
B22: peptide-HDO conjugate of Example 19 (first nucleic acid strand A1, second nucleic acid strand C19) (peptide)
peptide: AVFVWNYYIIRRYYC
modifications: MeF at 3, MeY at 14 (N-methyl); thioether ring from N-terminal chloroacetyl-Ala to Cys 15; C-terminal Gly-KN3-NH2, azide joined to BCN on the oligonucleotide
notes: also called A1/C19
B23: peptide-HDO conjugate of Example 44 (first nucleic acid strand A1, second nucleic acid strand C44) (peptide)
peptide: AVFVWNYYIIRRYYC
modifications: MeF at 3, MeY at 14 (N-methyl); thioether ring from N-terminal chloroacetyl-Ala to Cys 15; C-terminal Gly-KN3-NH2, azide joined to BCN on the oligonucleotide
notes: also called A1/C44
B24: peptide-HDO conjugate of Example 15 (first nucleic acid strand A2, second nucleic acid strand C15) (peptide)
peptide: AVFVWNYYIIRRYYC
modifications: MeF at 3, MeY at 14 (N-methyl); thioether ring from N-terminal chloroacetyl-Ala to Cys 15; C-terminal Gly-KN3-NH2, azide joined to BCN on the oligonucleotide
notes: also called A2/C15
B25: peptide-HDO conjugate of Example 31 (first nucleic acid strand A1, second nucleic acid strand C31) (peptide)
peptide: AVFVWNYYIIRRYYC
modifications: MeF at 3, MeY at 14 (N-methyl); thioether ring from N-terminal chloroacetyl-Ala to Cys 15; C-terminal Gly-KN3-NH2, azide joined to BCN on the oligonucleotide
notes: also called A1/C31
B26: peptide-HDO conjugate of Example 20 (first nucleic acid strand A1, second nucleic acid strand C20) (peptide)
peptide: AVFVWNYYIIRRYYC
modifications: MeF at 3, MeY at 14 (N-methyl); thioether ring from N-terminal chloroacetyl-Ala to Cys 15; C-terminal Gly-KN3-NH2, azide joined to BCN on the oligonucleotide
notes: also called A1/C20

Bounds are passed on as bounds.

T1 sequence (P02786 89-760 limits assumed): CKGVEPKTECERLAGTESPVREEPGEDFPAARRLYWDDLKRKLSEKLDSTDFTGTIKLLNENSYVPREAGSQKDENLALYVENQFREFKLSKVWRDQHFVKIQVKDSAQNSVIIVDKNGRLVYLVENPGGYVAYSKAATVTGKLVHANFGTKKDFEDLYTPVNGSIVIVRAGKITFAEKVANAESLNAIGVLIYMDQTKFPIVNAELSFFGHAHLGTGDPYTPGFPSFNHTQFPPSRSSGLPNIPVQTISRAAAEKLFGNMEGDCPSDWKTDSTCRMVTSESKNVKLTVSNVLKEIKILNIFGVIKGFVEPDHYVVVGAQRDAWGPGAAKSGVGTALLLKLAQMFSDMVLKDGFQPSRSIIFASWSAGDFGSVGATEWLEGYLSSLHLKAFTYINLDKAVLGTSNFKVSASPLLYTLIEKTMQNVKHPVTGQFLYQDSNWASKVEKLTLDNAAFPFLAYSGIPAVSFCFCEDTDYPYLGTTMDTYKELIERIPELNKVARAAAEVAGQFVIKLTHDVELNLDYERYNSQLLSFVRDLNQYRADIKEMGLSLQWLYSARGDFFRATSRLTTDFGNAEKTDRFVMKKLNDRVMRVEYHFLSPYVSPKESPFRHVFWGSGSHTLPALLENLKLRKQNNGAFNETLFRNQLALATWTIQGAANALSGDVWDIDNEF

The assay has as its target T1, human transferrin receptor (hTfR) (human, UniProt P02786 89-760, limits assumed).
T1 construct: 0.5 uM hTfR solution immobilised on a Ni-NTA chip with EDC/NHS; source and construct are not described; also called human TfR
Put plainly: SPR, hTfR immobilised on NTA chip, single cycle kinetics; A = KD less than 100 nM. As to the method:
The various synthesized peptide-nucleic acid conjugates were tested for intermolecular interaction by surface plasmon resonance (SPR) of the peptide-nucleic acid conjugate with transferrin receptor (hTfR) using the method shown below. The specific test method is shown below.
NTA sensor chip (Global Life Science Technologies Japan Co., Ltd.) was inserted into Biacore T200 (Global Life Science Technologies Japan Co., Ltd.), prime operation was performed three times with running buffer: 10 mM HEPES pH 8.0 (Nacalai Tesque Co., Ltd.), 150 mM NaCl (Nacalai Tesque Co., Ltd.), 0.05% Tween 20 (Nacalai Tesque Co., Ltd.), 0.1% BSA (SIGMA-ALDRICH), and 1.0% DMSO (FUJIFILM Wako Pure Chemical Corporation), and equilibrated at a flow rate of 30 μL/min. 350 mM EDTA solution was reacted for 60 seconds at a flow rate of 10 μL/min, 0.5 mM NiCl₂ solution (Kishida Chemical) was reacted for 60 seconds at a flow rate of 10 μL/min, and the NTA sensor chip was washed with 3 mM EDTA solution (Nacalai Tesque Co., Ltd.) for 60 seconds at a flow rate of 10 μL/min. After mixing 50 μL each of 60 mM EDC solution (Global Life Science Technologies Japan Co., Ltd.) and 650 mM NHS solution (Global Life Science Technologies Japan Co., Ltd.), the mixture was reacted for 420 seconds at a flow rate of 10 μL/min. 150 μL of a 0.5 μM hTfR solution was prepared by diluting with a running buffer and reacted for 300 seconds at a flow rate of 10 μL/min to immobilize hTfR on the NTA sensor chip. After immobilization, capping was performed by reacting with a 1.0 M ethanolamine aqueous solution (Global Life Science Technologies Japan Co., Ltd.) at a flow rate of 10 μL/min for 420 seconds. A peptide-nucleic acid conjugate solution adjusted to 10 mM in DMSO solution was diluted with running buffer to a final concentration of […] peptide-nucleic acid conjugate solution, and 100 nM, 50 nM, 25 nM, 10 nM, 5 nM peptide-nucleic acid conjugate solutions were prepared. Using the aforementioned samples, the kinetics of the peptide against hTfR was obtained by SPR measurement.
The kinetics evaluation model was Single Cycle Kinetics, and curve fitting was performed using Biacore T200 Evaluation Software Version 3.0 (Global Life Science Technologies Japan Co., Ltd.).
On the technique in general: Surface plasmon resonance follows binding to a sensor surface in real time, without labels.
In turn, B1 gave a Kd of less than 100 nM.

Molecule B2 returned a Kd of less than 100 nM. B3 registered a Kd of less than 100 nM. Molecule B4 registered a Kd of less than 100 nM.

On to B5, for which the Kd was less than 100 nM. The result for B6 reads less than 100 nM.

B7 came in with a Kd of less than 100 nM. In turn, B8 came in with a Kd of less than 100 nM.

As for B9, the Kd is less than 100 nM. In turn, B10 gave a Kd of less than 100 nM. Molecule B11 registered a Kd of less than 100 nM. Take B12: the Kd is less than 100 nM. In the case of B13, the Kd is less than 100 nM.

Consider B14, for which the Kd was less than 100 nM. B15 had a Kd of less than 100 nM. As to B16, the Kd is less than 100 nM. For B17, the Kd is less than 100 nM. B18 had a Kd of less than 100 nM. The result for B19 reads less than 100 nM; that for B20, less than 100 nM; that for B21, less than 100 nM. The result for B22 reads less than 100 nM; that for B23, less than 100 nM. In the case of B24, the Kd is less than 100 nM. The result for B25 reads less than 100 nM; that for B26, less than 100 nM.

One may read the Kd as a measure of binding affinity in units of concentration.

The record behind these values is patent US20240390508A1 (Takeda / Millennium, published 2024).
